Reference: patent publication US20060257406A1 (published 2006)
Blank lines part the entries; values can stand above or below the binder they belong to.

Experiments:
[1] = target: T1, human TNFα (human, UniProt P01375 77-233); assay: cell-based or functional assay
[2] = target: T1, human TNFα; assay: TNF receptor assay (ELISA): inhibition of TNF binding to plate-bound TNF receptor 1-Fc
[3] = target: T1, human TNFα; assay: not stated; printed in the column 'Equilibrium dissocation constant (Kd = Koff/Kon)' of the data summary
[4] = target: T1, human TNFα; assay: ELISA on 1 ug/ml TNF, 200 nM IgG, anti-Fc-HRP
Description: A 96 well plate was coated with 100 ul of INF and TNFRI at 1 ug/ml concentration in PBS overnight at 4 C. 50 ul (200 nM) of IgG was then added to the wells and bound IgG was detected via anti-Fc-HRP.

[5] = target: T2, hen egg lysozyme (hen, UniProt P00698 19-147); assay: ELISA on coated hen egg lysozyme, detection with 9e10 and anti mouse IgG-HRP
T2 construct: also called HEL; HL
T2 sequence (P00698 19-147): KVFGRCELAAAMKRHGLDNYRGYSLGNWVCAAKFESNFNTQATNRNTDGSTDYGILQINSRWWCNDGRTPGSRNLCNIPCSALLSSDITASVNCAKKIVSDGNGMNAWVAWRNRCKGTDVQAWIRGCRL

[6] = target: T2, hen egg lysozyme; assay: selection from a dAb library
[7] = target: T3, mouse serum albumin (mouse, UniProt P07724 25-608); assay: inhibition biacore: dAb premixed with MSA, binding to MSA-coated CM5 chip, Klotz plot (estimated Kd)
T3 construct: biotinylated MSA (about 2 biotins per molecule) in the capture ELISA; also called MSA
T3 sequence (P07724 25-608 limits assumed): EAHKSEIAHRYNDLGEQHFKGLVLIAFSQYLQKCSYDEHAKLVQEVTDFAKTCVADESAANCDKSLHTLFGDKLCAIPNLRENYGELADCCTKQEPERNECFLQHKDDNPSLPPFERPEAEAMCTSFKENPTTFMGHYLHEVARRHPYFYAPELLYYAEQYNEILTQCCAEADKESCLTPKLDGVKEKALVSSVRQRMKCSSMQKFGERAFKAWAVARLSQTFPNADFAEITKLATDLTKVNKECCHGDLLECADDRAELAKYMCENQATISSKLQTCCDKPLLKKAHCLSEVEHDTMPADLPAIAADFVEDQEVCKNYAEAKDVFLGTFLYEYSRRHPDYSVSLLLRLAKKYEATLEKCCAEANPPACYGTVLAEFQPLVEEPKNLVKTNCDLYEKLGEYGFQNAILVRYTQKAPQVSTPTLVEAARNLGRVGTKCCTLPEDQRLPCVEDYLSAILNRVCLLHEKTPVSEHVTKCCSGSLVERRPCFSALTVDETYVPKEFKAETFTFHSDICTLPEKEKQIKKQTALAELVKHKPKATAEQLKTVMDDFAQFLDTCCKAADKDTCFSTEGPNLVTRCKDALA
Description: The purified dabs were then analysed by inhibition biacore to determine Kd. […] Once the required concentrations of dAb had been determined, MSA antigen at a range of concentrations around the expected Kd was premixed with the dAb and incubated overnight. Binding to the MSA coated biacore chip of dAb in each of the premixes was then measured at a high flow-rate of 30 μl/minute.

[8] = target: T4, human serum albumin (human, UniProt P02768 25-609); assay: capture ELISA: dAb on protein L, biotinylated HSA, streptavidin-HRP
T4 construct: also called HSA
Description: (§1) Two rounds of selection were performed on serum albumin using each of the libraries separately. For each selection, antigen was coated on immunotube (nunc) in 4 ml of PBS at a concentration of 100 μg/ml. In the first round of selection, each of the three libraries was panned separately against HSA (Sigma) and MSA (Sigma). In the second round of selection, phage from each of the six first round selections was panned against (i) the same antigen again (eg 1st round MSA, 2nd round MSA) and (ii) against the reciprocal antigen (eg 1st round MSA, 2nd round HSA) resulting in a total of twelve 2nd round selections. In each case, after the second round of selection 48 clones were tested for binding to HSA and MSA. Soluble dAb fragments were produced as described for scFv fragments by Harrison et al, Methods Enzymol. 1996; 267:83-109 and standard ELISA protocol was followed (Hoogenboom et al. (1991) Nucleic Acids Res., 19: 4133) except that 2% tween PBS was used as a blocking buffer and bound dabs were detected with either protein LHRP (Sigma) (for the Vκs) and protein A—HRP (Amersham Pharmacia Biotech) (for the VHs).
Next, the serum albumin binding dAbs were tested for their ability to capture biotinylated antigen from solution. ELISA protocol (as above) was followed except that ELISA plate was coated with 1 μg/ml protein L (for the Vκ clones) and 1 μg/ml protein A (for the VH clones). […]

[9] = target: T3, mouse serum albumin; assay: capture ELISA: dAb on protein L, biotinylated MSA, streptavidin-HRP
Description: as §1
Next, the serum albumin binding dAbs were tested for their ability to capture biotinylated antigen from solution. ELISA protocol (as above) was followed except that ELISA plate was coated with 1 μg/ml protein L (for the Vκ clones) and 1 μg/ml protein A (for the VH clones). Soluble dAb was captured from solution as in the protocol and detection was with biotinylated MSA or HSA and streptavidin HRP. The biotinylated MSA and HSA had been prepared according to the manufacturer's instructions, with the aim of achieving an average of 2 biotins per serum albumin molecule. […] Next, the dAbs were tested for their ability to bind MSA coated on a CM5 biacore chip.

[10] = target: T1, human TNFα; assay: TNF receptor assay (ELISA): inhibition of TNF binding to plate-bound TNF receptor 1-Fc; remark: listed apart in the source
[11] = target: T1, human TNFα; assay: TNF receptor assay (ELISA), fermenter material purified by cation exchange FPLC
[12] = target: T1, human TNFα; assay: TNF receptor assay (ELISA): inhibition of TNF binding to plate-bound TNF receptor 1-Fc; remark: listed apart in the source

T1 sequence (P01375 77-233 limits assumed): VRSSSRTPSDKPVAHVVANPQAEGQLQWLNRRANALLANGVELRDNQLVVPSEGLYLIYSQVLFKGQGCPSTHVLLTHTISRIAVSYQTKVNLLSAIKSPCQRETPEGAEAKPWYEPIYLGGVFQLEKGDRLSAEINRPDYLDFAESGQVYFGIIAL

B1: TAR1-5-19 dAb monomer (other)
VL: DIQMTQSPSSLSASVGDRVTITCRASQSIDSYLHWYQQKPGKAPKLLIYSASELQSGVPSRFSGSGSGTDFTLTISSLQPEDFATYYCQQVVWRPFTFGQGTKVEIKR
notes: also called TAR1-5-19 monomer; TAR1-5-19 Vκ dAb
- ND50 in the cell assay [1]: ~30 nM
- IC50 [2]: 0.03 µM
- Kd [3]: 0.03 µM

B3: TAR1-5-19, MSA16 cys bonded heterodimer (bispecific antibody, V domains shown)
V domain 1: DIQMTQSPSSLSASVGDRVTITCRASQSIDSYLHWYQQKPGKAPKLLIYSASELQSGVPSRFSGSGSGTDFTLTISSLQPEDFATYYCQQVVWRPFTFGQGTKVEIKR
V domain 2: DIQMTQSPSSLSASVGDRVTITCRASQSIIKHLKWYQQKPGKAPKLLIYGASRLQSGVPSRFSGSGSGTDFTLTISSLQPEDFATYYCQQGARWPQTFGQGTKVEIKR
modifications: C-terminal Cys disulphide bonded to the C-terminal Cys of the MSA16 chain ; chain 1 pos 109 Cys and chain 2 pos 109 Cys are joined by an intermolecular disulphide bond (chemical coupling via dithiodipyridine); no tags
notes: two Vκ dAbs joined by a disulphide bond; separated from monomers by cation exchange; also called disulphide bonded heterodimer of TAR1-5-19 dAb and MSA16 dAb; heterodimeric species
- IC50 [2]: ~0.018 µM

B7: MSA16 (other)
VL: DIQMTQSPSSLSASVGDRVTITCRASQSIIKHLKWYQQKPGKAPKLLIYGASRLQSGVPSRFSGSGSGTDFTLTISSLQPEDFATYYCQQGARWPQTFGQGTKVEIK
notes: also called 21; dAb MSA16
- Kd [7]: 0.2 µM

B8: MSA26 (other)
VL: DIQMTQSPSSLSASVGDRVTITCRASQSIYYHLKWYQQKPGKAPKLLIYKASTLQSGVPSRFSGSGSGTDFTLTISSLQPEDFATYYCQQVRKVPRTFGQGTKVEIK
notes: also called 25; dAb MSA26
- Kd [7]: 0.07 µM

B11: TAR1-5-19d4 (other)
chain: DIQMTQSPSSLSASVGDRVTITCRASQSIDSYLHWYQQKPGKAPKLLIYSASELQSGVPSRFSGSGSGTDFTLTISSLQPEDFATYYCQQVVWRPFTFGQGTKVEIKRGGGGSGGGGSGGGGSGGGGSGGGGSDIQMTQSPSSLSASVGDRVTITCRASQSVKEFLWWYQQKPGKAPKLLIYMASNLQSGVPSRFSGSGSGTDFTLTISSLQPEDFATYYCQQKFKLPRTFGQGTKVEIK
- ND50 in the cell assay [1]: ~5 nM
- IC50 [10]: 0.002 to 0.005 µM
- IC50 [11]: 0.008 µM

B12: TAR1-5-19CYS dimer (other)
chain: DIQMTQSPSSLSASVGDRVTITCRASQSIDSYLHWYQQKPGKAPKLLIYSASELQSGVPSRFSGSGSGTDFTLTISSLQPEDFATYYCQQVVWRPFTFGQGTKVEIKRC
modifications: disulphide between the C-terminal Cys of the two chains
notes: separated from monomer by cation exchange; also called the dimer
- IC50 [2]: 0.0003 to 0.0008 µM

Second part, the binder after the results:

- binding result [4]: binds
B2: TAR1/TAR2 IgG (bispecific antibody, V domains shown)
VH: EVQLLESGGGLVQPGGSLRLSCAASGFTFEWYWMGWVRQAPGKGLEWVSAISGSGGSTYYADSVKGRFTISRDNSKNTLYLQMNSLRAEDAAVYYCAKVKLGGGPNFGYRGQGTLVTVSS
VL: DIQMTQSPSSLSASVGDRVTITCRASQSIDSYLHWYQQKPGKAPKLLIYSASELQSGVPSRFSGSGSGTDFTLTISSLQPEDFATYYCQQVVWRPFTFGQGTKVEIKR
notes: expressed in COS7 cells with CD33 or IgG κ leader, purified on Protein A; also called the IgG; not shown: IgG1 heavy chain constant region (CH1 from the CH vector; hinge, CH2 and CH3 from the pigplus vector); light chain kappa constant region (CK domain from the CK vector)

- ELISA signal [5]: 0.154
B4: VH CH/VH Cκ dual specific Fab like fragment (HEL4 CH, TAR2-5 Cκ) (Fab, V domains shown, not shown: a dimerising Fc or GST; small tags and cut ends)
V domain 1: EVQLLESGGGLVQPGGSLRLSCAASGFRISDEDMGWVRQAPGKGLEWVSSIYGPSGSTYYADSVKGRFTISRDNSKNTLYLQMNSLRAEDTAVYYCASALEPLSEPLGFWGQGTLVTVSS
V domain 2: EVQLLESGGGLVQPGGSLRLSCAASGFTFDLYNMFWVRQAPGKGLEWVSFISQTGRLTWYADSVKGRFTISRDNSKNTLYLQMNSLRAEDTAVYYCAKTLEDFDYWGQGTLVTVSS

- binding result [6]: binds
B5: HEL4 (other)
VH: EVQLLESGGGLVQPGGSLRLSCAASGFRISDEDMGWVRQAPGKGLEWVSSIYGPSGSTYYADSVKGRFTISRDNSKNTLYLQMNSLRAEDTAVYYCASALEPLSEPLGFWGQGTLVTVSS
notes: also called VH dAb HEL4; anti-hen egg white lysozyme dAb

- ELISA signal [5]: 0.069
B6: VH Cκ chain expressed alone (protein, not shown: a dimerising Fc or GST; small tags and cut ends)
VH: EVQLLESGGGLVQPGGSLRLSCAASGFTFDLYNMFWVRQAPGKGLEWVSFISQTGRLTWYADSVKGRFTISRDNSKNTLYLQMNSLRAEDTAVYYCAKTLEDFDYWGQGTLVTVSS

- binding result [8]: binds
- binding result [9]: binds
B9: anti-serum albumin Vκ dAb clones 38, 54 (other)
VL: DIQMTQSPSSLSASVGDRVTITCRASQSISSYLNWYQQKPGKAPKLLIYRASPLQSGVPSRFSGSGSGTDFTLTISSLQPEDFATYYCQQTYRIPPTFGQGTKVEIK

- binding result [8]: binds
- binding result [9]: binds
B10: anti-serum albumin Vκ dAb clones 2, 4, 7, 41 (other)
VL: DIQMTQSPSSLSASVGDRVTITCRASQSISSYLNWYQQKPGKAPKLLIYRASPLQSGVPSRFSGSGSGTDFTLTISSLQPEDFATYYCQQTYSVPPTFGQGTKVEIK

- IC50 [12]: 0.0003 µM
B13: trimeric TAR1-5-19CYS (other)
chain: DIQMTQSPSSLSASVGDRVTITCRASQSIDSYLHWYQQKPGKAPKLLIYSASELQSGVPSRFSGSGSGTDFTLTISSLQPEDFATYYCQQVVWRPFTFGQGTKVEIKRC
modifications: C-terminal Cys coupled to TMEA (Tris[2-maleimidoethyl]amine)
notes: also called the trimer; TAR1-5-19 homotrimer
